Among the data in paper PMC10010325 are response values, retold here.

Assay [1] concerns the target human CLDN18.2 (Claudin18.2), P56856-2. In words: not named in legend (MFI read-out, antibody titration on CLDN18.2). The note with it: value read at the highest antibody concentration, log10(µg/mL) about 1.5; read off a plot.
Assay [2] concerns the target Fcγ receptor type IIIA (CD16A), low affinity F158 (UniProt P08637). In words: not named in legend (luminescence read-out, antibody titration on CD16A F158). Particulars: value read at the highest antibody concentration, log10(µg/mL) about -1; parent: est. 4400; read off a plot.
Chain of UniProt P08637 (P08637 17-254): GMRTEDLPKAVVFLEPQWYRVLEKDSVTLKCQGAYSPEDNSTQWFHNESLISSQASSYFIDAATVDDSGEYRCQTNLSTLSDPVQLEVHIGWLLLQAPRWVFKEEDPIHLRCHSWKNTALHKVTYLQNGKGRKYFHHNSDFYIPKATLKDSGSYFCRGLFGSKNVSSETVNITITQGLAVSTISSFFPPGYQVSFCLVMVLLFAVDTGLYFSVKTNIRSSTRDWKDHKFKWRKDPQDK

For the substance “ZL-1211 wild-type (WT) Fc Fc mutations for enhanced ADCC (substitutions not printed)”, the response in assay [1] stood at 35000 MFI; in assay [2], 5000 luminescence.
